Measurements published in paper PMC4807364, “Interaction between Simian Virus 40 Major Capsid Protein VP1 and Cell Surface Ganglioside GM1 Triggers Vacuole Formation” (mBio, 2016).

B1: full-length wild-type SV40 VP1 (pentamers) (natural protein)
chain: MAPTKRKGSCPGAAPKKPKEPVQVPKLVIKGGIEVLGVKTGVDSFTEVECFLNPQMGNPDEHQKGLSKSLAAEKQFTDDSPDKEQLPCYSVARIPLPNINEDLTCGNILMWEAVTVKTEVIGVTAMLNLHSGTQKTHENGAGKPIQGSNFHFFAVGGEPLELQGVLANYRTKYPAQTVTPKNATVDSQQMNTDHKAVLDKDNAYPVECWVPDPSKNENTRYFGTYTGGENVPPVLHITNTATTVLLDEQGVGPLCKADSLYVSAVDICGLFTNTSGTQQWKGLPRYFKITLRKRSVKNPYPISFLLSDLINRRTQRVDGQPMIGMSSQVEEVRVYEDTEELPGDPDMIRYIDEFGQTTTRMQ
notes: major capsid protein VP1 of simian virus 40, full length, wild type, in the pGEX-4T2 plasmid; The virus stocks are strain 776, but no strain is stated for the bacterial construct; The preparations held pentamers and higher-order structures; no intact VLPs were seen; also called major capsid protein VP1; wild-type VP1 pentamers

Legend:
[1] = biological target: C-terminal deletion VP1 mutant (ΔC), truncated after amino acid position 305 (pentamers) (simian virus 40) (UniProt P03087); test: negative-stain electron microscopy; purified pentamers diluted in PBS pH 7.2 at 20 µg/ml, stained with 1% uranyl acetate, Tecnai T12; step: VP1 chains to pentamer
[2] = biological target: the molecule itself; test: as above

| Molecule | stoichiometry N [1] | stoichiometry N [2] |
| --- | --- | --- |
| C-terminal deletion VP1 mutant (ΔC), truncated after amino acid position 305 (pentamers) (from UniProt P03087 1-305) (domain or fragment) | 5 | – |
| B1 | – | 5 |
